Results reported in publication PMC3752660.

Molecular target: His6-Rv3208 (FasR from M. tuberculosis) (M. tuberculosis H37Rv)
Assay: SEC

Substance “His6-Rv3208 (FasR from M. tuberculosis) (natural protein)” has a stoichiometry N of 2.
